Experimental data reported in patent EP4676952A2 (dated 2026).

Columns and labels:
[1] = molecular target: T1, human complement component 2 (C2), purified protein (human, UniProt P06681 21-752); experiment: cell-based or functional assay
T1 sequence (looked up): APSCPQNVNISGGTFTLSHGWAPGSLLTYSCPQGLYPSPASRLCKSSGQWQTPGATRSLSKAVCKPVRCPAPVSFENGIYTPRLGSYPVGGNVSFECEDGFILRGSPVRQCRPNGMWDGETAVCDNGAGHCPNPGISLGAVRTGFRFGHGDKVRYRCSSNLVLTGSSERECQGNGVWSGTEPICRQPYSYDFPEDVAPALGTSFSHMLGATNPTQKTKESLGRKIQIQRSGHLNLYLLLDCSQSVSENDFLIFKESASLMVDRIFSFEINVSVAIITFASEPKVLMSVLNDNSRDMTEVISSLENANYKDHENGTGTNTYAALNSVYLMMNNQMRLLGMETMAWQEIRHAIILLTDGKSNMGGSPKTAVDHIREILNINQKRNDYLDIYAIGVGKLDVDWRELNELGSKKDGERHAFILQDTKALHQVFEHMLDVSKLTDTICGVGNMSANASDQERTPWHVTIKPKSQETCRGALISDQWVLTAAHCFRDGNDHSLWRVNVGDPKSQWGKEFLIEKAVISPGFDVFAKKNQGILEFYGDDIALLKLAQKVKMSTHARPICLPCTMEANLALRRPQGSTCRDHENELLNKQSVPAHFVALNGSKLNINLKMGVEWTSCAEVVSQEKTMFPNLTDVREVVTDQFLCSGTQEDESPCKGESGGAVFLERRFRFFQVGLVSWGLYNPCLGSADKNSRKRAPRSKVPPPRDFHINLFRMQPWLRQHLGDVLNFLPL

[2] = molecular target: T2, human C2b (small fragment of C2) (human, UniProt P06681); experiment: ELISA
T2 chain: T1 sequence (looked up)

[3] = molecular target: T1, human complement component 2 (C2), …; experiment: SPR, Biacore T200, nanobody immobilised on a CM5 chip, human C2 2.97 to 248 nM as analyte, 1:1 Langmuir model
[4] = molecular target: T3, C2b fragment of human C2 (human, UniProt P06681 21-243); experiment: pull-down of C1s-cleaved C2 with His-tagged nanobody on cobalt resin, western blot with goat anti-C2 polyclonal antibody
T3 construct: domain: C2b; also called smaller fragment C2b
T3 sequence (looked up): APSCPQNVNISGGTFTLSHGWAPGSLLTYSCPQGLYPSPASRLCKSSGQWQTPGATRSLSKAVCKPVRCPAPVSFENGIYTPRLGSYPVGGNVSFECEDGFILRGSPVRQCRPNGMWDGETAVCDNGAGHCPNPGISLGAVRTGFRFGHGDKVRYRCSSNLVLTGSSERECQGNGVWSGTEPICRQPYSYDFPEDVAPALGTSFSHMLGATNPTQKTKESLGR

MicroVue CH50 Eq EIA (C5b-9 generation, classical pathway, normal human serum), EC50 [1]: 53 nM
binding result [2]: no binding
Kd [3]: 3.03 nM
koff [3]: 0.000395 s⁻¹
kon [3]: 131000 M⁻¹ s⁻¹
binding result [4]: no binding
B1: Clone 1B10 C2 nanobody (Nab1B10), monovalent, His-tagged (VHH)
VHH: QVQLQESGGGLVQAGGSLRLSCAASGHTFRSYYMGWFRQAPGKEREFVASISWTGGSTEYADSVKGRFTISRDNAKNTVYLQMNSLKPEDTAAYYCAADYSGDFLLSDLDSWGQGTQVTVSS
notes: Alpaca VHH expressed in E. coli BL21 from the pMES4 vector; single 15 kDa band on SDS-PAGE; also called NablBlO; Nabl BIO; not shown: His tag (monovalent form is 'His-tagged', purified on cobalt resin)
classical complement pathway-mediated hemolytic assay (EShA, normal human serum), IC50 [1]: ~3 nM
